Experimental data taken from patent US20260042848A1.

Target: native human AXL on non-transfected human cell lines (A-431, A-549, HeLa, MDA-MB-231, NCI-H1299) (human) (UniProt P30530)
Experiment: cell-based or functional assay

native human AXL on non-transfected human cell lines (A-431, A-549, HeLa, MDA-MB-231, NCI-H1299) (human), sequence (P30530 26-894 limits assumed): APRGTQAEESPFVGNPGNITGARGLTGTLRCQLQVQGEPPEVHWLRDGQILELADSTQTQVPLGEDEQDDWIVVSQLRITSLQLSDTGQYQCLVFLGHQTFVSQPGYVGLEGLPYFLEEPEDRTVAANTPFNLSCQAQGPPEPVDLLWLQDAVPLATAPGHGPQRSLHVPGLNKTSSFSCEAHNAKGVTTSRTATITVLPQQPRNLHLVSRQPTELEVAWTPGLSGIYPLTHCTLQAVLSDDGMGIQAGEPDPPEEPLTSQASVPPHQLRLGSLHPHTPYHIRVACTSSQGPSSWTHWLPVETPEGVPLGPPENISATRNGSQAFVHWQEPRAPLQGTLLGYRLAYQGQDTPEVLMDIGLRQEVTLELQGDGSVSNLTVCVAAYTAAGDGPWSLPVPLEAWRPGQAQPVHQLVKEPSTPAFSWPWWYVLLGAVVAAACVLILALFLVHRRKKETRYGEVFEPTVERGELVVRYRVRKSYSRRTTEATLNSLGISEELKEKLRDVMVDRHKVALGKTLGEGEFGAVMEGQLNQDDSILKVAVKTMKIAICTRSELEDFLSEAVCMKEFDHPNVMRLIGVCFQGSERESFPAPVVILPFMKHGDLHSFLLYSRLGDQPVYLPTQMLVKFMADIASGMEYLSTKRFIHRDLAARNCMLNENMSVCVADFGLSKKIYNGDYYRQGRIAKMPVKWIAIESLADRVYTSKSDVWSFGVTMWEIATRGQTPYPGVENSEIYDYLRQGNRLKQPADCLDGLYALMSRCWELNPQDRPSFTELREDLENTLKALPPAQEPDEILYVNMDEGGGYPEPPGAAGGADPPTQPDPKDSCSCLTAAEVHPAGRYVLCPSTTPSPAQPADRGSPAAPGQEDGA

AKT phosphorylation in H1299 cells without Gas6; APC-A Geometric mean; p-AKT APC + isotype control: 4380
AKT phosphorylation in H1299 cells without Gas6; Median: APC-A; p-AKT APC + isotype control: 4430
ERK phosphorylation in H1299 cells without Gas6; APC-A Geometric mean; p-ERK A647 + isotype control: 965
ERK phosphorylation in H1299 cells without Gas6; Median: APC-A; p-ERK A647 + isotype control: 274
Gas6 induced AKT phosphorylation in H1299 cells; APC-A Geometric mean; p-AKT APC + isotype control + Gas6: 8380
Gas6 induced AKT phosphorylation in H1299 cells; Median: APC-A; p-AKT APC + isotype control + Gas6: 9120
Gas6 induced ERK phosphorylation in H1299 cells; APC-A Geometric mean; p-ERK A647 + isotype control + Gas6: 1320
Gas6 induced ERK phosphorylation in H1299 cells; Median: APC-A; p-ERK A647 + isotype control + Gas6: 1020
Substance: isotype control (Example 5) (antibody)
